From patent publication US9708383 (Novo Nordisk, dated 2017) come the findings set out here.

*1 amine or outer side, *2 acyl side, *3 side chain or, on linkers, in order; H or OH if unused. Where no end group is shown, it is not given here. Side-chain parts run from the residue outwards. The star is where a group is joined. Decanoyl(10-(4-HOOC-PhO)) = O=C(O)c1ccc(OCCCCCCCCCC(=O)*)cc1; γGlu = O=C(O)[C@H](CCC(=O)[*:2])N[*:1]; 13‑carboxytridecanoyl = C14 diacid; Butanoyl(4-Ph) = O=C(CCCc1ccccc1)*; AEEA = NCCOCCOCC(=O)O; Ahx = NCCCCCC(=O)O

To fix the notation:
B1: GLP-1 derivative of Example 97: [Lys,Glu22,Arg34]-GLP-1-(7-37)-peptide (peptide)
peptide: HAEGTFTSDVSK([AEEA-AEEA-γGlu-γGlu-13‑carboxytridecanoyl])YLEEQAAK([AEEA-AEEA-γGlu-γGlu-13‑carboxytridecanoyl])EFIAWLVRGRG
notes: Name prints Lys without its number (Lys18)

In the first assay the target is T1, human GLP-1 receptor (human, UniProt P43220 24-463).
T1 construct: whole, on cells; Used as purified membranes of the transfected hamster cells, not whole cells; also called hGLP-1
Put plainly: SPA, 2.0% vs 0.005% HSA. On the procedure:
(§1) A shift in the binding affinity, $IC50$, is an indication that the derivative in question binds to albumin, and thereby a prediction of a potential protracted pharmacokinetic profile of the derivative in question in animal models.
(§2) 25 ul (microliter) of test compounds are added to Optiplate. HSA ("high albumin" experiment containing 2% HSA), or buffer ("low albumin" experiment containing 0.005% HSA), was added (50 ul). 5-10 µg protein/sample was added (50 ul) corresponding to 0.1-0.2 mg protein/ml (to be preferably optimised for each membrane preparation). SPA-particles (Wheatgerm agglutinin SPA beads, Perkin Elmer, #RPNQ0001) were added in an amount of 0.5 mg/well (50 ul). […] The plates were sealed with PlateSealer and incubated for 120 minutes at 30° C. while shaking. The plates were centrifuged (1500 rpm, 10 min) and counted in Topcounter.
As for HAEGTFTSDVSK([AEEA-AEEA-γGlu-Decanoyl(10-(4-HOOC-PhO))])YLEEQAAK([AEEA-AEEA-γGlu-Decanoyl(10-(4-HOOC-PhO))])EFIAWLVRGRG [GLP-1 derivative of Example 94: [Lys18,Glu22,Arg34]-GLP-1-(7-37)-peptide], the “ratio IC50 high HSA/IC50 low HSA” value was above 1.

Take HAEGTFTSDVSK([AEEA-AEEA-γGlu-13‑carboxytridecanoyl])YLEEQAAK([AEEA-AEEA-γGlu-13‑carboxytridecanoyl])EFIAWLVRGRG [GLP-1 derivative of Example 96: [Lys18,Glu22,Arg34]-GLP-1-(7-37)-peptide]: the “ratio IC50 high HSA/IC50 low HSA” value is above 1.

Take HAEGTFTSDVSK([AEEA-AEEA-γGlu-Decanoyl(10-(4-HOOC-PhO))])YLEGQAAK([AEEA-AEEA-γGlu-Decanoyl(10-(4-HOOC-PhO))])EFIAWLVRGRG [GLP-1 derivative of Example 95: [Lys18,Arg34]-GLP-1-(7-37)-peptide]: the “ratio IC50 high HSA/IC50 low HSA” value is above 1.

On to HAEGTFTSDVSK([AEEA-AEEA-γGlu-γGlu-γGlu-13‑carboxytridecanoyl])YLEEQAVREFIAK([AEEA-AEEA-γGlu-γGlu-γGlu-13‑carboxytridecanoyl])LVRGRG [GLP-1 derivative of Example 101: [Lys18,Glu22,Val25,Arg26,Lys31,Arg34]-GLP-1-(7-37)-peptide], for which the “ratio IC50 high HSA/IC50 low HSA” value is above 1.

In the case of HAEGTFTSDVSK([γGlu-AEEA-AEEA-Decanoyl(10-(4-HOOC-PhO))])YLEGQAAK([γGlu-AEEA-AEEA-Decanoyl(10-(4-HOOC-PhO))])EFIAWLVRGRG [GLP-1 derivative of Example 106: [Lys18,Arg34]-GLP-1-(7-37)-peptide], the “ratio IC50 high HSA/IC50 low HSA” value was above 1.

Regarding HAEGTFTSDVSK([AEEA-AEEA-AEEA-AEEA-AEEA-AEEA-γGlu-13‑carboxytridecanoyl])YLEEQAVREFIAK([AEEA-AEEA-AEEA-AEEA-AEEA-AEEA-γGlu-13‑carboxytridecanoyl])LVRGRG [GLP-1 derivative of Example 99: [Lys18,Glu22,Val25,Arg26,Lys31,Arg34]-GLP-1-(7-37)-peptide], the “ratio IC50 high HSA/IC50 low HSA” value is above 1.

Regarding B1, the “ratio IC50 high HSA/IC50 low HSA” value is above 1.

In the case of HAEGTFTSDVSK([AEEA-AEEA-AEEA-AEEA-γGlu-13‑carboxytridecanoyl])YLEEQAVREFIAK([AEEA-AEEA-AEEA-AEEA-γGlu-13‑carboxytridecanoyl])LVRGRG [GLP-1 derivative of Example 98: [Lys18,Glu22,Val25,Arg26,Lys31,Arg34]-GLP-1-(7-37)-peptide], the “ratio IC50 high HSA/IC50 low HSA” value is above 1.

Consider HAEGTFTSDVSK([γGlu-AEEA-AEEA-13‑carboxytridecanoyl])YLEGQAVREFIAK([γGlu-AEEA-AEEA-13‑carboxytridecanoyl])LVRGRG [GLP-1 derivative of Example 104: [Lys18,Val25,Arg26,Lys31,Arg34]-GLP-1-(7-37)-peptide], for which the “ratio IC50 high HSA/IC50 low HSA” value was above 1.

As for HAEGTFTSDVSK([AEEA-AEEA-γGlu-Ahx-γGlu-Butanoyl(4-Ph)])YLEGQAAK([AEEA-AEEA-γGlu-Ahx-γGlu-Butanoyl(4-Ph)])EFIAWLVRGRG [GLP-1 derivative of Example 110: [Lys18,Arg34]-GLP-1-(7-37)-peptide], the “ratio IC50 high HSA/IC50 low HSA” value is above 1.

For HAEGTFTSDVSK([AEEA-AEEA-γGlu-Decanoyl(10-(4-HOOC-PhO))])YLEGQAVREFIAK([AEEA-AEEA-γGlu-Decanoyl(10-(4-HOOC-PhO))])LVRGRG [GLP-1 derivative of Example 107: [Lys18,Val25,Arg26,Lys31,Arg34]-GLP-1-(7-37)-peptide], the “ratio IC50 high HSA/IC50 low HSA” value was above 1.

The next assay addresses T1, human GLP-1 receptor. Put plainly: SPA, displacement of 125I-GLP-1(7-36)NH2, 0.005% HSA. As to the method:
as §1, §2
(Loss of bound radioactivity is the signal in a displacement assay; it reports binding, not function.)
What is called IC50 is the point on the concentration scale where inhibition reaches its midpoint. High values mean weaker potency, low ones greater potency. HAEGTFTSDVSK([AEEA-AEEA-γGlu-Decanoyl(10-(4-HOOC-PhO))])YLEEQAAK([AEEA-AEEA-γGlu-Decanoyl(10-(4-HOOC-PhO))])EFIAWLVRGRG [GLP-1 derivative of Example 94: [Lys18,Glu22,Arg34]-GLP-1-(7-37)-peptide] showed an IC50 below 1000 nM.

On to HAEGTFTSDVSK([AEEA-AEEA-γGlu-13‑carboxytridecanoyl])YLEEQAAK([AEEA-AEEA-γGlu-13‑carboxytridecanoyl])EFIAWLVRGRG [GLP-1 derivative of Example 96: [Lys18,Glu22,Arg34]-GLP-1-(7-37)-peptide], for which the IC50 was below 1000 nM.

HAEGTFTSDVSK([AEEA-AEEA-γGlu-Decanoyl(10-(4-HOOC-PhO))])YLEGQAAK([AEEA-AEEA-γGlu-Decanoyl(10-(4-HOOC-PhO))])EFIAWLVRGRG [GLP-1 derivative of Example 95: [Lys18,Arg34]-GLP-1-(7-37)-peptide] gave an IC50 below 1000 nM.

Consider HAEGTFTSDVSK([AEEA-AEEA-γGlu-γGlu-γGlu-13‑carboxytridecanoyl])YLEEQAVREFIAK([AEEA-AEEA-γGlu-γGlu-γGlu-13‑carboxytridecanoyl])LVRGRG [GLP-1 derivative of Example 101: [Lys18,Glu22,Val25,Arg26,Lys31,Arg34]-GLP-1-(7-37)-peptide], for which the IC50 is below 1000 nM.

In the case of HAEGTFTSDVSK([γGlu-AEEA-AEEA-Decanoyl(10-(4-HOOC-PhO))])YLEGQAAK([γGlu-AEEA-AEEA-Decanoyl(10-(4-HOOC-PhO))])EFIAWLVRGRG [GLP-1 derivative of Example 106: [Lys18,Arg34]-GLP-1-(7-37)-peptide], the IC50 is below 1000 nM.

Regarding HAEGTFTSDVSK([AEEA-AEEA-AEEA-AEEA-AEEA-AEEA-γGlu-13‑carboxytridecanoyl])YLEEQAVREFIAK([AEEA-AEEA-AEEA-AEEA-AEEA-AEEA-γGlu-13‑carboxytridecanoyl])LVRGRG [GLP-1 derivative of Example 99: [Lys18,Glu22,Val25,Arg26,Lys31,Arg34]-GLP-1-(7-37)-peptide], the IC50 was below 1000 nM.

In turn, B1 had an IC50 below 1000 nM.

HAEGTFTSDVSK([AEEA-AEEA-AEEA-AEEA-γGlu-13‑carboxytridecanoyl])YLEEQAVREFIAK([AEEA-AEEA-AEEA-AEEA-γGlu-13‑carboxytridecanoyl])LVRGRG [GLP-1 derivative of Example 98: [Lys18,Glu22,Val25,Arg26,Lys31,Arg34]-GLP-1-(7-37)-peptide] showed an IC50 below 1000 nM.

Molecule HAEGTFTSDVSK([γGlu-AEEA-AEEA-13‑carboxytridecanoyl])YLEGQAVREFIAK([γGlu-AEEA-AEEA-13‑carboxytridecanoyl])LVRGRG [GLP-1 derivative of Example 104: [Lys18,Val25,Arg26,Lys31,Arg34]-GLP-1-(7-37)-peptide] yielded a half-inhibitory concentration (IC50) below 1000 nM.

HAEGTFTSDVSK([AEEA-AEEA-γGlu-Ahx-γGlu-Butanoyl(4-Ph)])YLEGQAAK([AEEA-AEEA-γGlu-Ahx-γGlu-Butanoyl(4-Ph)])EFIAWLVRGRG [GLP-1 derivative of Example 110: [Lys18,Arg34]-GLP-1-(7-37)-peptide] yielded a half-inhibitory concentration (IC50) below 1000 nM.

On to HAEGTFTSDVSK([AEEA-AEEA-γGlu-Decanoyl(10-(4-HOOC-PhO))])YLEGQAVREFIAK([AEEA-AEEA-γGlu-Decanoyl(10-(4-HOOC-PhO))])LVRGRG [GLP-1 derivative of Example 107: [Lys18,Val25,Arg26,Lys31,Arg34]-GLP-1-(7-37)-peptide], for which the IC50 is below 1000 nM.
